B1: 63A11 parental antibody (antibody, V domains shown)
VH: EVQLVESGGGLVKPGGSRKLSCAASGFTFSDHGMHWVRQAPEKGLEWVAYISSGSSAIFYADTVKGRFTMSRDNAKNTLFLQMTSLRSEDTAMYFCARWTNLYAMDYWGQGTSVTVSS
VL: DIVLTQSPASLAVSLGQRATISCRASKSVSTSGYSYMHWYQQKPGQPPKLLIYLASNLESGVPARFSGSGSGTDFTLNIHPVEEEDAATYYCQHSRELPLTFGAGTKLELKR
B2: 63A11_H2/_L0 (antibody)
chain 1: not shown
chain 2: DIVMTQSPDSLAVSLGERATINCRASKSVSTSGYSYMHWYQQKPGQPPKLLIYLASNLESGVPDRFSGSGSGTDFTLTISSLQAEDVAVYYCQHSRELPLTFGGGTKVEIKRTVAAPSVFIFPPSDEQLKSGTASVVCLLNNFYPREAKVQWKVDNALQSGNSQESVTEQDSKDSTYSLSSTLTLSKADYEKHKVYACEVTHQGLSSPVTKSFNRGEC
B3: 63A11_H0/_L1 (antibody)
chain 1: not shown
chain 2: B2 chain 2 with M4L
B4: 63A11_H0/_L0 (antibody)
chain 1: not shown
chain 2: B2 chain 2
B5: 63A11_H1/_H1 (antibody)
chain 1: not shown
chain 2: B2 chain 2 with M4L
B6: 63A11_H3/_L0 (antibody)
chain 1: not shown
chain 2: B2 chain 2
B7: 63A11_H3/_L1 (antibody)
chain 1: not shown
chain 2: B2 chain 2 with M4L
B8: 63A11_H1/_L0 (antibody)
chain 1: not shown
chain 2: B2 chain 2
B9: 63A11_H2/_L1 (antibody)
chain 1: not shown
chain 2: B2 chain 2 with M4L
B10: 51B12 H0L3 (antibody)
chain 1: not shown
chain 2: B2 chain 2 with M4L, L50F, L98V, L100Y
B11: 51B12 H0L0 (antibody)
chain 1: not shown
chain 2: B2 chain 2 with L98V, L100Y
B12: *51B12 H0L2 (antibody)
chain 1: not shown
chain 2: B2 chain 2 with L50F, L98V, L100Y
B13: 51B12H0L1 (antibody)
chain 1: not shown
chain 2: B2 chain 2 with M4L, L98V, L100Y
B14: 63A11 H3/L0 (antibody)
chain 1: not shown
chain 2: B2 chain 2
B15: 63A11 H1/L1 (antibody)
chain 1: not shown
chain 2: B2 chain 2 with M4L
B16: 63A11 H0/L0 (antibody)
chain 1: not shown
chain 2: B2 chain 2
B17: 63A11 H3/L1 (antibody)
chain 1: not shown
chain 2: B2 chain 2 with M4L
B18: 63A11 H2/L0 (antibody)
chain 1: not shown
chain 2: B2 chain 2
B19: 63A11 H1/L0 (antibody)
chain 1: not shown
chain 2: B2 chain 2
B20: 63A11 H0/L1 (antibody)
chain 1: not shown
chain 2: B2 chain 2 with M4L
B21: 63A11 H2/L1 (antibody)
chain 1: not shown
chain 2: B2 chain 2 with M4L
B22: 63A11 H0L1 (antibody)
chain 1: not shown
chain 2: B2 chain 2 with M4L

The text below walks through data of US20230357387A1 (published 2023).

Substitutions are numbered along the chain they refer to.

The Kd is a measure of binding affinity in units of concentration. Low readings indicate higher affinity, high ones lower affinity. Broadly, the EC50 is the concentration that produces a half-maximal response. Lower therefore signals higher potency in that assay.

The first assay concerns the target T1, human ZIP12 extracellular domain expressed as a GST fusion protein (UniProt Q504Y0 1-202). The assay can be described thus: SPR; replicate 2.
B1 came in with an equilibrium dissociation constant (Kd) of 0.757 nM.

B2 came in with a Kd of 2.04 nM.

Consider B3, for which binding was characterised by a dissociation constant (Kd) of 0.889 nM. This Kd is about 2.3-fold lower than that of the molecule before.

B4: binding was put at a Kd of 1.95 nM.

In turn, B5 had a Kd of 1.96 nM. This Kd and that of the molecule before are within 1.5-fold of each other.

The molecule B6 gave a Kd of 1.62 nM. This Kd and that of the molecule before are within 1.5-fold of each other.

Take B7: the affinity, expressed as Kd, was 1.41 nM.

The molecule B8 came in with a Kd of 1.62 nM. The Kd values of the last two molecules are within 1.5-fold of each other.

Regarding B9, the equilibrium dissociation constant (Kd) came to 1.14 nM.

The target of the next assay is T1, human ZIP12 extracellular domain …. The assay can be described thus: SPR; replicate 2. This is another data set of the same source. Background: In SPR one partner is held on a chip, and binding of the other changes the refractive index at the surface.
Molecule B10 returned a dissociation constant Kd of 0.785 nM. This lies in the sub-nanomolar range.

B11 showed a Kd of 1.39 nM.

For B12, the affinity, expressed as Kd, was 2.16 nM. Compared with the last molecule, the Kd is about 1.6-fold higher.

For the molecule B13, the dissociation constant Kd turned out to be 1.83 nM. The Kd values of the last two molecules are within 1.5-fold of each other.

Another assay addresses human ZIP12 on human ZIP12 expressing transfectant cells (UniProt Q504Y0 1-691). The assay can be described thus: flow cytometry.
Consider B1, for which the EC50 came out at 0.233 µg/mL.

As for B14, a half-maximal response (EC50) required 0.583 µg/mL.

On to B15, for which the EC50 was determined as 0.515 µg/mL.

Consider B16, for which the midpoint of the response, the EC50, lay at 0.778 µg/mL. This EC50 lies about 1.5-fold higher than the previous one.

As for B17, a half-maximal response (EC50) required 0.5 µg/mL.

In the case of B18, the half-maximal effective concentration (EC50) came out at 0.411 µg/mL. The EC50 values of the last two molecules are within 1.5-fold of each other.

B19: a half-maximal response (EC50) required 0.508 µg/mL.

B20 yielded an EC50 of 0.338 µg/mL.

Consider B21, for which it took 0.586 µg/mL to reach a half-maximal effect (EC50).

The next assay deals with T1, human ZIP12 extracellular domain …. The assay can be described thus: SPR; replicate 1.
B10: the Kd was 0.605 nM.

For B11, the affinity, expressed as Kd, was 1.39 nM.

On to B12, for which the Kd is 0.706 nM.

In turn, B13 yielded a dissociation constant (Kd) of 4.17 nM. This Kd is about 5.9-fold higher than that of the molecule before.

A further assay has the same target. Briefly: ELISA. For orientation: An ELISA detects its analyte on a solid surface through an enzyme-linked reagent.
In turn, B1 registered an EC50 of 1.7 ng/mL.

Regarding B14, it took 2 ng/mL to reach a half-maximal effect (EC50).

On to B15, for which the half-maximal effective concentration (EC50) came out at 1.5 ng/mL.

In turn, B16 returned an EC50 of 1.8 ng/mL.

In turn, B17 came in with an EC50 of 1.9 ng/mL.

Turning to B18, the midpoint of the response, the EC50, lay at 1.8 ng/mL. The EC50 values of the last two molecules are within 1.5-fold of each other.

As to B19, a half-maximal response (EC50) required 1.8 ng/mL.

In turn, B20 had an EC50 of 1.6 ng/mL. The EC50 values of the last two molecules are within 1.5-fold of each other.

The molecule B21 yielded an EC50 of 1.6 ng/mL.

Another assay has the same target. Briefly: SPR; summary value.
As for B10, binding was characterised by a dissociation constant (Kd) of 0.7 nM.

B22: binding was put at a Kd of 0.9 nM.

For the next assay the target is unchanged. Briefly: SPR; replicate 1. The source holds these as a separate data set.
B1 returned a dissociation constant Kd of 0.757 nM. This lies in the sub-nanomolar range.

In the case of B2, the Kd was 2.1 nM.

Turning to B3, binding was characterised by a dissociation constant (Kd) of 0.888 nM. This Kd is about 2.4-fold lower than that of the molecule before.

For the molecule B4, the equilibrium dissociation constant (Kd) was determined as 2.38 nM.

Regarding B5, the Kd was 1.82 nM.

As to B6, the affinity, expressed as Kd, was 1.23 nM.

Molecule B7 gave a dissociation constant (Kd) of 1.28 nM.

In turn, B8 came in with a Kd of 1.32 nM.

In turn, B9 came in with a dissociation constant Kd of 0.97 nM.
